Test results published in patent US9809653B2, “Anti-LAMP1 antibodies and antibody drug conjugates, and uses thereof” (SANOFI, priority 2012, dated 2017).
“And” between values parts separate entries of the source, which are not always exact repeats. Equal entries are not always repeated. Where two headings read alike, the source gives them in different places.

Legend:
[1] = molecular target: T1, recombinant human LAMP1 (29-382 of SEQ ID NO: 28) (Homo sapiens, UniProt P11279); assay: ELISA on recombinant human LAMP1; format: binding
T1 construct: made in house; host or cells: HEK293 (293-F), transient expression, IMAC-purified
T1 sequence (P11279 with tags, fused parts or gaps): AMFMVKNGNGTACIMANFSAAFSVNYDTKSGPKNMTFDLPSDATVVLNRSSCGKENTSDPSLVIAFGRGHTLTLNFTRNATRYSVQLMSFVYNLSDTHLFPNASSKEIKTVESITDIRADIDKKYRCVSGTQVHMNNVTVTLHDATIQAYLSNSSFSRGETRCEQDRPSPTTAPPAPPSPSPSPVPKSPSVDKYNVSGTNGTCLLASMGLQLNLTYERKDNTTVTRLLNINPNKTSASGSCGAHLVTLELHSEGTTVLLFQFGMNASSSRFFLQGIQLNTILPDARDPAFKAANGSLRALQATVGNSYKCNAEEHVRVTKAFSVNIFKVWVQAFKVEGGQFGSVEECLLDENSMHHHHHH

[2] = test system: cynomolgus LAMP1 expressed at the cell surface of recombinant HCT116; assay: FACS on recombinant HCT116 stable clones expressing cynomolgus LAMP1; format: binding, cynomolgus monkey; conditions: HCT116 stable clone
Procedure: HCT116 cells were infected by a lentiviral vector allowing stable integration of the human or the cynomolgus LAMP1 CDS in genomic DNA of cells. Individual clones with different densities of human or cynomolgus LAMP1 cell surface localization were derived from a pool of HCT116 infected cells. […] 100 μL/well of goat anti-human IgG conjugated with Alexa488 (Invitrogen; #A11013) was added for 1 h at 4° C. and washed two times with PBS 1% BSA. The antibody binding was evaluated after centrifugation and resuspension of cells in 100 μl fixing solution (paraformaldehyde at 4% in PBS). Samples were read using Galaxy® Flow Cytometry System (Partec). EC50 values were estimated using BIOST@T-SPEED software.
100 μL/well of goat anti-mouse IgG conjugated with Alexa647 (Invitrogen; #A2135) was added for 45 min at 4° C. and washed three times with PBS 1% BSA. The antibody binding was evaluated after centrifugation and re-suspension of cells by adding 200 μl/well PBS 1% BSA and read using Guava® easyCyte™ 8HT Flow Cytometry System. EC50 values were estimated using BIOST@T-SPEED software.

[3] = molecular target: T2, LAMP1 in FFPE colon adenocarcinoma PDX CR-LRB-010P and human breast carcinoma (Homo sapiens, UniProt P11279); assay: IHC on FFPE tumor tissue, LAMP1 membrane reinforcement; conditions: FFPE samples
T2 construct: from tissue; host or cells: human tumoral and non-tumoral tissue sections and PDX tumour sections (frozen-OCT, AFA, FFPE)
T2 sequence (P11279 29-417): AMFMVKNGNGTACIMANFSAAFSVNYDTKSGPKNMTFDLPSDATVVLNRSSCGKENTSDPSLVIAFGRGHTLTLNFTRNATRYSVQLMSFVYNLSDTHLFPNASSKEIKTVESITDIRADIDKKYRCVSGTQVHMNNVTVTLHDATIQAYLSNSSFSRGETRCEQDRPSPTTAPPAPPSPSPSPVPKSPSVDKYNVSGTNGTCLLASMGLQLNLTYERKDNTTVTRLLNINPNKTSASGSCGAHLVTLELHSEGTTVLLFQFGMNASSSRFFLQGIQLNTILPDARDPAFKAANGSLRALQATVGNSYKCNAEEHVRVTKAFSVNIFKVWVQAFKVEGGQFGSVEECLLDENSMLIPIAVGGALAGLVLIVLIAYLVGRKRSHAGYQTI
Source text: IHC analysis of tumor tissues from biobanks or from hospitals before or during patient treatment is routinely done with formalin-fixed paraffin-embedded (FFPE) samples. […] One of the reasons is probably the effect of the formalin fixative combined to the complexity of the protein. Samples processed in frozen OCT or AFA are not routinely prepared in hospitals. Therefore, there is a need to have a mAb that would allow complete and fast coverage of the FFPE tumor biobanks and hospital samples.
Rabbit polyclonal antibodies generated with peptides described in example 17.1.1 were tested by IHC on FFPE sample of colon adenocarcinoma patient derived xenograft CR-LRB-010P and human breast carcinoma. After antigen retrieval procedure and endogen biotins blocking steps, slides were incubated with the primary anti-antibody for 1 hour at 24° C. Negative controls were performed by omission of the primary antibody. The biotin free anti-rabbit UltraMap™ horseradish peroxidase (HRP) conjugate (760-4315, Ventana Medical Systems, Inc, USA) was used as secondary antibody system according to manufacturer's recommendations. A couterstaining step was done with hematoxylin (760-2037, Ventana Medical Systems, Inc, USA) and bluing reagent was applied (760-2037, Ventana Medical Systems, Inc, USA). Stained slides were dehydrated and coverslipped with cytoseal XYL (8312-4, Richard-Allan Scientific, USA).
As the same manner as in example 17.1.2, IHC screening was performed with the hybridoma supernatant to identify mouse monoclonal antibody showing LAMP1 membrane reinforcement on FFPE sample of colon adenocarcinoma patient derived xenograft CR-LRB-010P. The biotin free anti-mouse UltraMap™ horseradish peroxidase (HRP) conjugate (760-152, Ventana Medical Systems, Inc, USA) was used as secondary antibody system according to manufacturer's recommendations.

[4] = molecular target: T3, cell surface LAMP1 on Patient-derived tumor xenografts and tumor cell lines (Homo sapiens, UniProt P11279); assay: Antibody binding capacity (ABC) by FACS on patient-derived xenografts and tumor cell lines
T3 construct: endogenous in cells; host or cells: enzymatically dissociated patient-derived xenograft tumour cells (e.g. CR-IGR-034P, LUN-NIC-014P, BRE-IGR-0159) and tumour cell lines
T3 sequence (P11279 29-417): T2 sequence (P11279 29-417)
Procedure: Antibody binding capacity of antibody was determined using Mouse IgG Calibrator kit (Biocytex #7208) or Human IgG Calibrator Kit (Biocytex #CP010) according to the manufacturer's instructions.
The panel of tumor cells comprises Patient-derived tumor xenografts from different origins and tumor cell lines. FIG. 2 illustrates the expression profile and Table 4 summarizes the antibody binding capacity results.
The panel of tumor cells comprises Patient-derived tumor xenografts from different origins and tumor cell lines.

[5] = ELISA (Table 7), read-out: EC50
[6] = ELISA (Table 13), read-out: EC50 (nM) human LAMP1
[7] = ELISA (Table 21), read-out: EC50 obtained for murine hybridoma mAbs hLAMP1

Sequence of cynomolgus LAMP1 expressed at the cell surface of recombinant HCT116 (as listed by the source): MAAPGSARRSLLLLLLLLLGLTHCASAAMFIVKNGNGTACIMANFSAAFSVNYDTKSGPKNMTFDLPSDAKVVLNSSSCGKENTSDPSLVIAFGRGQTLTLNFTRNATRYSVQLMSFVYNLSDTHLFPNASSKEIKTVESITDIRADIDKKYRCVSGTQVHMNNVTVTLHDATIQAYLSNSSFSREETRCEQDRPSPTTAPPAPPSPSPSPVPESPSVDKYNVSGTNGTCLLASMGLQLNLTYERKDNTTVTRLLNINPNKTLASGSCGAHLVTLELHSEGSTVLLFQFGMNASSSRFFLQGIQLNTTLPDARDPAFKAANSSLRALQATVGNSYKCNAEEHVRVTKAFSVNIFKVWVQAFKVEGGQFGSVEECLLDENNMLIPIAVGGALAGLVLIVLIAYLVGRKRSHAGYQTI

B1: MAb2: murine monoclonal anti-LAMP1 antibody, VH SEQ ID NO: 8, VL SEQ ID NO: 12 (antibody, V domains shown)
VH: QVQLQQSAAELARPGASVKMSCKASGYTFTSYTMHWVKQRPGQGLEWIGYFNPSSGYPEYNQKFKDKTTLTADKSSNTAFIQLNSLTSEDSAVYYCSRGYYYGSRGYALDFWGQGASVTVSS
VL: NIVLTQSPVSLAVSLGQRATISCRASESVDINGNTFMHWYQQKPGQSPKLVIYAASNIESGVPARFSGSGSSTDFTFTIDPVEADDVATYYCQQNIEDPWTFGGGTKVEIK
modifications: antibod fragment; antibody fragment
EC50 [1, 5]: 0.25 nM
EC50 [1, 6]: 0.25 nM
EC50 [1, 7]: 0.25 nM
EC50 ([1]; ELISA, read-out: EC50 to LAMP1): ~0.3 nM
EC50 [2]: 6.6 nM
LAMP1 membrane reinforcement in FFPE format by IHC [3]: can not lead to the detection of LAMP1 reinforcement in FFPE format
Antibody Binding Capacity (ABC) ([4]; CR-IGR-034P/colorectal PDX): 180,000
Antibody Binding Capacity (ABC) ([4]; CR-LRB-003P/colorectal PDX): 22 000
Antibody Binding Capacity (ABC) ([4]; CR-LRB-010P/colorectal PDX): 95,000
Antibody Binding Capacity (ABC) ([4]; Colo205/colon cell line): 4,000
Antibody Binding Capacity (ABC) ([4]; LS174T/colon cell line): 3,600
Antibody Binding Capacity (ABC) ([4]; LUN-NIC-014/lung PDX): 102,000
Antibody Binding Capacity (ABC) ([4]; LUN-NIC-025/lung PDX): 27,000
Antibody Binding Capacity (ABC) ([4]; OVA-IGR-0022/ovary PDX): 60,000
Antibody Binding Capacity (ABC) ([4]; STO-IND-006/stomach PDX): 64,000
Antibody Binding Capacity (ABC) ([4]; SW480/colon cell line): 1,700

B2: MAb1: murine monoclonal anti-LAMP1 antibody, VH SEQ ID NO: 1, VL SEQ ID NO: 5 (antibody, V domains shown)
VH: QVQLQQSGAELVKPGASVKMSCKASGYIFTNYNIHWVKKSPGQGLEWIGAIYPGNGDAPYSQKFKDKATLTADKSSSTTYMQLSRLTSEDSAVYYCVRANWDVAFAYWGQGTLVSVSA
VL: DIQMTQSPPSLSASLGGKVTITCKASQDIDRYMAWYQDKPGKGPRLLIHDTSTLQPGIPSRFSGSGSGRDYSFSISNLEPEDIATYYCLQYDNLWTFGGGTKLEIK
modifications: Antibody Fragment; antibody fragment
EC50 [1, 5]: 0.18 nM
EC50 [1, 6]: 0.18 nM
EC50 [1, 7]: 0.18 nM
EC50 ([1]; ELISA, read-out: EC50 to LAMP1): 0.16 nM and ~0.2 nM
EC50 [2]: 5.5 nM
LAMP1 membrane reinforcement in FFPE format by IHC [3]: can not lead to the detection of LAMP1 reinforcement in FFPE format
Antibody Binding Capacity (ABC) ([4]; CR-IGR-034P/colorectal PDX): 230,000
Antibody Binding Capacity (ABC) ([4]; CR-LRB-003P/colorectal PDX): 25 000
Antibody Binding Capacity (ABC) ([4]; CR-LRB-010P/colorectal PDX): 140,000
Antibody Binding Capacity (ABC) ([4]; Colo205/colon cell line): 6,000
Antibody Binding Capacity (ABC) ([4]; LS174T/colon cell line): 6,000
Antibody Binding Capacity (ABC) ([4]; LUN-NIC-014/lung PDX): 104,000
Antibody Binding Capacity (ABC) ([4]; LUN-NIC-025/lung PDX): 33,000
Antibody Binding Capacity (ABC) ([4]; OVA-IGR-0022/ovary PDX): 67,000
Antibody Binding Capacity (ABC) ([4]; STO-IND-006/stomach PDX): 90,000
Antibody Binding Capacity (ABC) ([4]; SW480/colon cell line): 2,500
